Reference: the Immune Epitope Database (IEDB)

Key:
[1] = biological target: HLA-A*02:06; assay: IEDB peptide-MHC binding, purified MHC/competitive/radioactivity; ≥ and ≤ were set here for values at or beyond the usual limits of such assays
[2] = biological target: HLA-A*02:02; assay: as above
[3] = biological target: HLA-A*02:03; assay: as above
[4] = biological target: HLA-A*02:01; assay: as above
[5] = biological target: HLA-A*68:02; assay: IEDB peptide-MHC binding, cellular MHC/competitive/fluorescence; ≥ and ≤ were set here for values at or beyond the usual limits of such assays
[6] = source organism: Hepacivirus hominis
[7] = source organism: Vaccinia virus WR
[8] = source organism: Mammarenavirus machupoense
[9] = source organism: Influenza A virus

Row | Sequence | IC50 [1, 7] [µM] | IC50 [2, 7] [µM] | IC50 [3, 7] [µM] | IC50 [4, 7] [µM] | IC50 [5, 7] [µM] | further results
1 | LMWFIISIV | – | – | – | – | – | IC50 ([1]; source organism: SARS-CoV1): 0.027 µM; IC50 ([2]; source organism: SARS-CoV1): 0.06 µM; IC50 ([3]; source organism: SARS-CoV1): 0.0072 µM; IC50 ([4]; source organism: SARS-CoV1): 0.0098 µM; IC50 ([5]; source organism: SARS-CoV1): 18.4 µM
2 | FLWLLWPVTL | – | – | – | – | – | IC50 ([1]; source organism: SARS-CoV1): 0.028 µM; IC50 ([2]; source organism: SARS-CoV1): 0.0027 µM; IC50 ([3]; source organism: SARS-CoV1): 0.014 µM; IC50 ([4]; source organism: SARS-CoV1): 0.00098 µM; IC50 ([5]; source organism: SARS-CoV1): 5.22 µM
3 | FLLALLSCLT | – | – | – | – | – | IC50 [1, 6]: 0.592 µM; IC50 [2, 6]: 0.086 µM; IC50 [3, 6]: 0.154 µM; IC50 [4, 6]: 0.092 µM; IC50 [5, 6]: ≥ 70 µM
4 | GLFDINVIGL | 0.24 | 0.00016 | 0.0014 | 0.013 | 7.08 | –
5 | SALMTLDDLA | 0.193 | 0.21 | 2.32 | 0.249 | 19.1 | –
6 | GLLYFILFFV | – | – | – | – | – | IC50 [1, 6]: 0.678 µM; IC50 [2, 6]: 0.141 µM; IC50 [3, 6]: 0.187 µM; IC50 [4, 6]: 0.051 µM; IC50 [5, 6]: 23.2 µM
7 | FLLALLSCI | – | – | – | – | – | IC50 [1, 6]: 0.015 µM; IC50 [2, 6]: 0.0087 µM; IC50 [3, 6]: 0.0073 µM; IC50 [4, 6]: 0.0024 µM; IC50 [5, 6]: ≥ 70 µM
8 | ALMTLDDLAI | 0.024 | 0.014 | 0.029 | 0.00074 | 7.7 | –
9 | LLDCIMYQS | – | – | – | – | – | IC50 [1, 8]: 3.28 µM; IC50 [2, 8]: 1.54 µM; IC50 [3, 8]: 2.27 µM; IC50 [4, 8]: 1.1 µM; IC50 [5, 8]: 11.3 µM
10 | YLGHSAGFT | 4.54 | 0.874 | 0.225 | 1.56 | 8.45 | –
11 | LLNMRDLIVT | 0.707 | 1.42 | 0.557 | 2.02 | 33.2 | –
12 | KLPTWLGAA | 0.0094 | 0.499 | 0.008 | 0.207 | ≥ 70 | –
13 | ILFQNNDINA | 3.18 | 0.023 | 0.407 | 0.549 | 9.98 | –
14 | RALKAYFTA | 0.014 | 2.35 | 0.204 | 0.158 | 11.4 | –
15 | SLVSKHWELT | 2.69 | 0.409 | 0.035 | 0.096 | 16.3 | –
16 | ALSGVFCGV | – | – | – | – | – | IC50 ([1]; source organism: SARS-CoV1): 0.05 µM; IC50 ([2]; source organism: SARS-CoV1): 0.0012 µM; IC50 ([3]; source organism: SARS-CoV1): 0.012 µM; IC50 ([4]; source organism: SARS-CoV1): 0.013 µM; IC50 ([5]; source organism: SARS-CoV1): 22.5 µM
17 | ALVSGTATA | – | – | – | – | – | IC50 ([1]; source organism: SARS-CoV1): 0.269 µM; IC50 ([2]; source organism: SARS-CoV1): 0.0046 µM; IC50 ([3]; source organism: SARS-CoV1): 0.0081 µM; IC50 ([4]; source organism: SARS-CoV1): 0.134 µM; IC50 ([5]; source organism: SARS-CoV1): 31.3 µM

Row | Sequence | IC50 [1, 7] [µM] | IC50 [2, 7] [µM] | IC50 [3, 7] [µM] | IC50 [4, 7] [µM] | IC50 [5, 7] [µM] | further results
18 | YLSDSDNIKI | 0.906 | 0.016 | 0.109 | 0.053 | 7.78 | –
19 | FLPQIGGEAI | 0.01 | 0.001 | 0.014 | 0.158 | 6.54 | –
20 | ALDCQIYGA | – | – | – | – | – | IC50 [1, 6]: 1.2 µM; IC50 [2, 6]: 1.59 µM; IC50 [3, 6]: 1.8 µM; IC50 [4, 6]: 0.143 µM; IC50 [5, 6]: ≥ 70 µM
21 | LLSTTEWQV | – | – | – | – | – | IC50 [1, 6]: 0.333 µM; IC50 [2, 6]: 0.0049 µM; IC50 [3, 6]: 0.095 µM; IC50 [4, 6]: 0.067 µM; IC50 [5, 6]: 27.3 µM
22 | GLLGCIITSL | – | – | – | – | – | IC50 [1, 6]: 0.316 µM; IC50 [2, 6]: 0.035 µM; IC50 [3, 6]: 0.0031 µM; IC50 [4, 6]: 0.015 µM; IC50 [5, 6]: 48.9 µM
23 | SLTQVKELGI | 0.157 | 0.0098 | 0.075 | 0.21 | 7.15 | –
24 | KLLPQLPGV | – | – | – | – | – | IC50 [1, 6]: 0.0017 µM; IC50 [2, 6]: 0.051 µM; IC50 [3, 6]: 0.0052 µM; IC50 [4, 6]: 0.0017 µM; IC50 [5, 6]: 42.4 µM
25 | KLYGYASLT | 1.99 | 0.076 | 0.022 | 0.326 | 11 | –
26 | ALTDVEKRIL | 0.934 | 0.097 | 0.127 | 0.429 | 13.8 | –
27 | LLYFILFFV | – | – | – | – | – | IC50 [1, 6]: 0.504 µM; IC50 [2, 6]: 0.227 µM; IC50 [3, 6]: 0.323 µM; IC50 [4, 6]: 0.164 µM; IC50 [5, 6]: 23 µM
28 | KTIISEEYL | 0.15 | 0.916 | 1.22 | 0.694 | 10.9 | –
29 | RLIQNSITI | – | – | – | – | – | IC50 [1, 9]: 1.33 µM; IC50 [2, 9]: 0.137 µM; IC50 [3, 9]: 0.028 µM; IC50 [4, 9]: 0.084 µM; IC50 [5, 9]: ≥ 70 µM
30 | LQISRVNDL | 0.229 | 0.09 | 0.011 | 1.7 | ≥ 70 | –
31 | TLFGRGVIDT | 3.31 | 0.199 | 0.096 | 0.13 | 5.73 | –
32 | KINPLLDEPL | 0.019 | 0.053 | 0.304 | 1.47 | 10.1 | –
33 | ILDNAAKYV | 1.81 | 0.126 | 0.261 | 0.014 | 22.7 | –
34 | SLIYYQNEVT | 4.31 | 0.077 | 0.606 | 0.529 | 7.2 | –
